These results are taken from PMC6269467 (Nature Communications, 2018).

Positions count from the first letter of the chain named. In names and notes the source's numbering stands.

B1: αE-catenin actin-binding domain, wild type (αEcat-ABD-WT; residues 652-906) (domain or fragment)
chain: SRTSVQTEDDQLIAGQSARAIMAQLPQEQKAKIAEQVASFQEEKSKLDAEVSKWDDSGNDIIVLAKQMCMIMMEMTDFTRGKGPLKNTSDVISAAKKIAEAGSRMDKLGRTIADHCPDSACKQDLLAYLQRIALYCHQLNICSKVKAEVQNLGGELVVSGVDSAMSLIQAAKNLMNAVVQTVKASYVASTKYQKSQGMASLNLPAVSWKMKAPEKKPLVKREKQDETQTKIKRASQKKHVNPVQALSEFKAMDSI
notes: source: E. coli BL21-CodonPlus, purified (glutathione-sepharose, thrombin cleavage, Superdex 75); not shown: GST, N-terminal, cleaved
B2: αEcat-ABD V714A (domain or fragment)
chain: B1 chain with V63A
notes: as for B1
B3: αEcat-ABD 3A (L785A, I792A and V796A together) (domain or fragment)
chain: B1 chain with L134A, I141A, V145A
notes: as for B1
B4: αEcat-ABD L785A (domain or fragment)
chain: B1 chain with L134A
notes: as for B1
B5: αEcat-ABD I792A (domain or fragment)
chain: B1 chain with I141A
notes: as for B1
B6: αEcat-ABD V796A (domain or fragment)
chain: B1 chain with V145A
notes: as for B1
B7: αN-catenin actin-binding domain with the helix-1 mutation (αNcat-ABD-H1) (domain or fragment, mouse, UniProt Q61301-2 651-905, looked up)
chain: SRTSVQTEDDQLIAGQSAGSGSAQLPQEEKAKIAEQVEIFHQEKSKLDAEVAKWDDSGNDIIVLAKQMCMIMMEMTDFTRGKGPLKNTSDVINAAKKIAEAGSRMDKLARAVADQCPDSACKQDLLAYLQRIALYCHQLNICSKVKAEVQNLGGELIVSGLDSATSLIQAAKNLMNAVVLTVKASYVASTKYQKVYGTAAVNSPVVSWKMKAPEKKPLVKREKPEEFQTRVRRGSQKKHISPVQALSEFKAMDSF
notes: The substitution is printed in αN-catenin's own numbers; PDB 4K1O is the wild-type parent; 6DUW (form A) and 6DUY (form B) are this construct; also called αN-catenin ABD-H1; αN-H1; source: E. coli BL21-CodonPlus, purified (glutathione-sepharose, thrombin cleavage, Superdex 75); 15N-labelled in M9 minimal media for NMR; not shown: GST, N-terminal, cleaved
B8: αE-catenin actin-binding domain with the helix-1 mutation (αEcat-ABD-H1; RAIM670-673GSGS) (domain or fragment)
chain: B1 chain with R19G, A20S, I21G, M22S
notes: as for B1

What is called Kd is the constant that tells how readily two partners part at equilibrium. Low readings indicate tighter binding, high ones weaker binding. A word on the koff: it is the first-order rate constant of dissociation. Low readings indicate slow dissociation, high ones fast dissociation. As a reminder, the kon is a measure of how fast the partners come together. Low readings indicate slow association, high ones fast association.

In the first data set the target is T1, filamentous actin (F-actin) from rabbit skeletal muscle (rabbit, UniProt P68135 1-377). The experiment in a line: BLI; F-actin immobilised on Streptavidin (SA) biosensors through LAbio peptide; αcat-ABD in solution at various concentrations; 26 °C, Octet384; 2 mM Tris-HCl pH 8.0, 0.2 mM ATP, 0.5 mM DTT, 0.1 mM CaCl2, 50 mM KCl, 2 mM MgCl2, 0.1% BSA, 0.02% Tween-20; 2:1 heterogeneous ligand model. The note with it: both partners purified.
In the case of B1, the “KD1 (2:1 heterogeneous ligand model)” value is 2 µM, the “KD2 (2:1 heterogeneous ligand model)” value was 0.3 µM, the “koff1 (2:1 heterogeneous ligand model)” value was 0.465 s⁻¹ and the “koff2 (2:1 heterogeneous ligand model)” value is 0.00964 s⁻¹. Also, the “kon1 (2:1 heterogeneous ligand model)” value amounted to 234000 M⁻¹ s⁻¹ and the “kon2 (2:1 heterogeneous ligand model)” value stood at 31900 M⁻¹ s⁻¹.
For the molecule B2, the “KD1 (2:1 heterogeneous ligand model)” value is 2.6 µM, the “KD2 (2:1 heterogeneous ligand model)” value stood at 0.7 µM, the “koff1 (2:1 heterogeneous ligand model)” value came out at 0.568 s⁻¹ and the “koff2 (2:1 heterogeneous ligand model)” value is 0.0135 s⁻¹. Moreover, the “kon1 (2:1 heterogeneous ligand model)” value was 221000 M⁻¹ s⁻¹ and the “kon2 (2:1 heterogeneous ligand model)” value was 20100 M⁻¹ s⁻¹.
In the case of B3, the “KD1 (2:1 heterogeneous ligand model)” value came out at 38.4 µM, the “KD2 (2:1 heterogeneous ligand model)” value is 6.1 µM, the “koff1 (2:1 heterogeneous ligand model)” value stood at 0.799 s⁻¹ and the “koff2 (2:1 heterogeneous ligand model)” value was 0.00849 s⁻¹. Moreover, the “kon1 (2:1 heterogeneous ligand model)” value came to 20800 M⁻¹ s⁻¹ and the “kon2 (2:1 heterogeneous ligand model)” value turned out to be 1400 M⁻¹ s⁻¹.
As to B4, the “KD1 (2:1 heterogeneous ligand model)” value was determined as 27.8 µM, the “KD2 (2:1 heterogeneous ligand model)” value came out at 4.8 µM, the “koff1 (2:1 heterogeneous ligand model)” value came to 0.69 s⁻¹ and the “koff2 (2:1 heterogeneous ligand model)” value was 0.0107 s⁻¹. Moreover, the “kon1 (2:1 heterogeneous ligand model)” value amounted to 24900 M⁻¹ s⁻¹ and the “kon2 (2:1 heterogeneous ligand model)” value came to 2210 M⁻¹ s⁻¹.
Take B5: the “KD1 (2:1 heterogeneous ligand model)” value came to 4 µM, the “KD2 (2:1 heterogeneous ligand model)” value turned out to be 0.6 µM, the “koff1 (2:1 heterogeneous ligand model)” value amounted to 0.945 s⁻¹ and the “koff2 (2:1 heterogeneous ligand model)” value was determined as 0.00881 s⁻¹. Further, the “kon1 (2:1 heterogeneous ligand model)” value amounted to 234000 M⁻¹ s⁻¹ and the “kon2 (2:1 heterogeneous ligand model)” value came to 14500 M⁻¹ s⁻¹.
As for B6, the “KD1 (2:1 heterogeneous ligand model)” value came to 3.7 µM, the “KD2 (2:1 heterogeneous ligand model)” value turned out to be 1.8 µM, the “koff1 (2:1 heterogeneous ligand model)” value was determined as 0.773 s⁻¹ and the “koff2 (2:1 heterogeneous ligand model)” value turned out to be 0.0125 s⁻¹. In addition, the “kon1 (2:1 heterogeneous ligand model)” value stood at 211000 M⁻¹ s⁻¹ and the “kon2 (2:1 heterogeneous ligand model)” value was 6910 M⁻¹ s⁻¹.

Another data set deals with the molecule itself. The experiment in a line: crystal structure; αNcat-ABD-H1 crystal forms A (P6522, 2.2 Å) and B (P212121, 2.8 Å), grown at 277 K by vapor diffusion.
Conditions: not given
With B7, the binding result was “binds”.

The next data set concerns the target T1, filamentous actin (F-actin) from rabbit …. Briefly: co-sedimentation; actin cosedimentation at high RCF: 5 μM ABD and 5 μM actin in 50 μL Buffer-F, 1 h at RT, Airfuge ≥100,000×g 20 min at RT; supernatant and pellet by SDS-PAGE with coomassie, band intensity by ImageJ. The settings on record: both partners purified.
On to B3, for which the “reduction in the amount of ABD cosedimenting with F-actin compared to αEcat-ABD-WT” value is 78%.
Still for that read-out and setting: for B4 the value was 75%; for B5, 36%.
For B6, the “reduction in the amount of ABD cosedimenting with F-actin compared to αEcat-ABD-WT” value was found to be 47%.

The target is the same in another data set. The experiment in a line: BLI; as a2 but Super-Streptavidin (SSA) biosensors with increased streptavidin density, used for αEcat-ABD-H1; 1:1 binding model. The settings on record: both partners purified. (BLI is a label-free optical method that tracks binding on a fibre tip over time.)
Regarding B8, the Kd came to 580 nM, the koff came out at 0.264 s⁻¹ and the kon stood at 455000 M⁻¹ s⁻¹.
